The DeepSol protein solubility set

assay: soluble on expression in E. coli; label from the status in PepcDB or PDB records

Row | Sequence | soluble on expression in E. coli
1 | MQQYAQRDKKHEYWFAVPQERTDHLYAFFIQWSPEIYAEDTGEYTREPGFIVVKKIEESETIEDSSNQAAAREWEITTREDINSKQVATVKADLESESFRPNLSDPSELLLPDQIEKLTKHLPPRTIGYPWTLVYGTGKHGTSLKTLYRTMTGLDTPVLMVIKDSDGQVFGALASEPLKVSDGFYGTGETFVFTFCPEFEVFKWTGDDMFFIKGDMDSLAFGGGGGEFALWLDGDLYHGRSHSCKTFGNRTLSKKEDFFIQDIEIWAFELEHHHHHH | not soluble
2 | MSLMSKPQITIKDIARELGVSPSTVSRALKDNPDISQETRDAIHKYAREHNYKPNVLALNLRTSRSNTIGVIIPQLVHHFFSCVLSGIERTAAEAGYNILVAQSNEEYEREVKIVHSFLAARVCGVITSLAKDTSRYDHYQELLDNNIPIVFYDRICTGINTERVVVDDYAGSFAAVEYMIQTGCKRIFFYSAAPHLEISKNRRNGYMDAMKKYRIPVDQSMIKLCDSREKAIAITPALLERPDHPDGFFAINDETASGILYSCKLTGRKVPDEVSICGFTDGAIAQSTDPKLTTVEQHGEEVGKSTIRLLIDKLEGNDEGKSGNKIVRTNLVVRGTTKEGHHHHHH | soluble
3 | MSELEKTFGIKVSPGAIYPILSSLRKSGLIEVAREGKREKKLYRITEKGEEYLKKHEDEVEEALEIANKLKEFSELGGREVAQVLREVIENIDKLSEEQKTALAREFSEFVKRIKIILLGGE | soluble
4 | GEPDAQNWQHTVGKDVVAGLTQREIDRQEVINELFVTEASHLRTLRVLDLIFYQRMKKENLMPREELARLFPNLPELIEIHNSWCEAMKKLREEGPIIKEISDLMLARFDGPAREELQQVAAQFCSYQSIALELIKTKQRKESRFQLFMQEAESHPQCRRLQLRDLIISEMQRLTKYPLLLESIIKHTEGGTSEHEKLCRARDQCREILKYVNEAVKQTENRHRLEGYQKRLDATALERASNPLAAEFKSLDLTTRKMIHEGPLTWRISKDKTLDLHVLLLEDLLVLLQKQDEKLLLKCHSKTAVGSSDSKQTFSPVLKLNAVLIRSVATDKRAFFIICTSKLGPPQIYELVALTSSDKNTWMELLEEAVRNATRHPHHHHHH | soluble
5 | MKVTPINDYKDIHQDKETVLVLGYFDALHRGHKVLFDKARQIADEKQLEVAVFTFNESPQLTFQRYTDDLLLHITAPQRRCDLFKAYGTDQLYLTDFNSDFARTSSDDFITRYINRLKAQEIVVGFDYKFGHHRTDTDYLDRNFSGTVHVIEEQQSGGEKISSTRVRQLIREGNVKEANNLLGHEFSTRGIVVHGDARGRTIGFPTANLAPIDRTILPADGVYVADVVIDGKRYRSMTSLGKNVTFGGTELRLEANIFDFEGDIYGKTIEVFWLDYIRDMIKFNNIDELCDQLKADKKIAEKL | not soluble
6 | MALTVSLLDKLIDSDPTTREEKDFPVSQQHMLNGLLRDLESMLNSRIGWKNIHEDFLEVRYSILNYGLPDFSSMPYSSQDGQSQLCDIVYEAIREFEPRLRNPHVQISDEKNAIDRTLRLEISATCLIDNDIHELRFNSEVEPVNLGMKLSRAK | not soluble
7 | LLERLPVPVLAVQHDGVVVYSNRAFERMLDYPPNEVGNHLIGDLMQTASPGPSAVAELRESAGKLVALTHRDGSTVRAFVSESVLERHDDPVTLVCFHDVT | not soluble
8 | AEKRIGLMLFGKGNIGSRWLELFAREQTTLSARTGFEFILAGVVDSKRSLLNYDGLDASRALAFFNDEAVEQDEESLFLWMRAHPYDDLVVLDVTASEQLADQYLDFASHGFHVISANKLAGASSSDKYRQIHDAFEKTGRHWLYNATVGAGLPVNHTVRDLIDSGDTILGLSGIFSGTLSWLFLQ | not soluble
9 | MGSDKIHHHHHHMNTLVDAGFSPRREGFAPQPLIEALLSILPAHCVLHREEDTRPYECDGLSLYRALPAVVALPEDEAQVRAIMQLCKRMNVPIVARGAGTGLSGGAMPHAQGVLLGLSKLNRIKRIDPAGGTAVVEPGVRNLAISEAAAPYGLYYAPDPSSQIACSIGGNVAENSGGVHCLKYGLTVHNVLRVRVVTIDGEIVELGSEAPDAPGLDLLSVFVGSEGMLGVVTEITVKLIPSPACAQVVMASFASVEAAGNAVTQIIAAGLIPAGLEMMDRQAVHMVEPFVQAGYDLQAQAILLCEADGTPQEVAHEVAMMEAVFKRAGATSLQVSGSEAERLRFWAGRKNAFPAAGRVSPDYYCMDGTIPRRHLARVLGAIEQMEDDFGLRCANVFHAGDGNLHPLILFDSNKPDEVERAEKFGAAILELCVQVGGTVTGEHGVGMEKINQMCVQFSRDELDAFLAVKRAFDPPGLLNPEKVIPTLARCAEYGKMHVHAGEMRFPDLARF | not soluble
10 | MGSDKIHHHHHHMPVYLYYGEDTYSLNQKIDHLVNQNVHAEWKDFNYIKLSGNEKNIAAKVFTEVMTLPFGEGNKIVHTDSDHLIGSLSNEDNNQELENQLSRIPASNILLITSNKKPDSRRTVVKTILKYAQQEEFPLVPCWDKKGIVNLIGKYAAIHQVKFTPDVTDYLVEAIGNNTARVDSEFAKLAVYASEKIISLEEIKQLVSNHNTDYQKLTIAMLRNHSNLAIAQVDKLLDSNEHPLKIVATLTSFFRTWLITKAGVEARLSDIKIAEIAEVKNPKRLYYLKDEIKFVGVQKLKNSLTLLLQLETELKSGTNNLISRIIEICMI | not soluble
11 | MNFLLILTLISIIVRSRQENASMDPCNDFYDYVCTNDTRSITKLNFASLFDDREILKPNISFPNNGTYIALDQILEPDRLMKWYMTVKSLDTATVDLEYFFETHYEYISKKNDSEKFSFAVETLENVNLTLTNIFYNSLYANIKVLNQLNLPAAEENKFLHHISNLLKNNTIEEIWSSSLSNKSKKVLDEELNNSKVFFGLLDYNNVTMLEETKLVYETEYYRLKSLLSSDDLDTEIAEKILRLGAIDTATKYLAKRIPGYEPEFLFSAFASNMENEAFKHNSAIYAGIVTRSDLQQPMLAIADTVSVLAHELMHFVYPSGTELLTPNVTKAAKKCTQDEVKRMGDSDVVKPIDGWFSKKVTHEDLANIMGLRMVMKMVARKSASEEQLKNALETLLSGLCIQGKPKNSILPHHHPFEISINTAVRQYPLFSSLYGCRLGDRMFAEAEQFCKPLGGEVNLEDYKIKNDTEDIGGFFTYIMDTANAFNFSFRN | not soluble
12 | MGLDTIEKGADGLDSIKSLAFVYGETDNPYTKTSELFTWLFGHEIADTVLLLLNDHIYILGSNRKVEFFGSVTGDNQSSGKVPTVSTLLRDKTDKDAGNFEKLIDHIKSAGGDVGNFVKEKFSSEFVSSWNKALEEGGVNKNDVTLAFTHLFAVKDDKEMDLIRKSAQATTASWTAARARYVEISDNEKVLIVLKIVELGVLLRVRHSVLSNQFAAFMKDSKVQQALAKYEADTCYDPIKMLIFVDRKYDSVVVPIFGIPVPFHISMIKNCSQSVEGDLTYLRINFATPGSQVGKDSGQFPHPLAHYMKEFTFRASNIKDHHSDSTAPSRNLSTAFRFIKEMQKRFKSEEAEQREKEGAVKQDKLILSQNKLNPKLNLLICPNIIQKLITGSLEAHTNGFRFLFNSFSRYTSLRAFFEEGGWSFLNAESDNEEAMDDSDDSDAYDPEEEDASAGSGSESDEDESEGEETESDDDDEGSLDSDEFVQPIFAF | not soluble
13 | MAHHHHHHMDGEAAAPTGGAGPKYIVEHLDELEEWSILEYIHICETVKDQNVIFTKFDRPFGEVSEEHNPTCYKQPISELKDKFEWKKICLLDMKATSTLTCSDREHLDYLLFGGILGNVPSDDRTSILRKCQFVISRNLGDMQMTTNTAVLVCHIILDKHVEFKDIPFVDSPEIPLRNEKETMVLPFRFVSKSFFTGMEGDRNVPVLPRNFTEYLIGLGDQRVGDLDEFLSGVVV | soluble
14 | MGSDKIHHHHHHMAKVIKTKKGLALNLKGKPLPEMLAEPAQSPTYAVVPDDFEGVIPKVTARPGDKVRAGSALMHHKAYPEMKFTSPVSGEVIAVNRGAKRKVLSIEVKPDGLNEYESFPVGDPSALSAEQIKELLLSSGMWGFIKQRPYDIVATPDIAPRDIYITANFTAPLAPDFDFIVRGEERALQTAIDALAKLTTGKVYVGLKPGSSLGLHNAEIVEVHGPHPAGNVGVLINHTKPINRGETVWTLKATDLIVIGRFLLTGKADFTRMIAMTGSDAAAHGYVRIMPGCNVFASFPGRLTIKESHERVIDGNVLTGKKLCEKEPFLSARCDQITVIPEGDDVDELFGWAAPRLDQYSMSRAYFSWLQGKNKEYVLDARIKGGERAMIMSNEYDRVFPMDIYPEYLLKAIIAFDIDKMEDLGIYEVAPEDFATCEFVDTSKIELQRIVREGLDMLYKEMN | not soluble
15 | MAHHHHHHMKNNEEWEKEKIYDRQLRLWGVKAQNRMMKSNVLILGLSGINIEICKNLILNGINITIIDDNIVDEEMVENIFFLNESDIQNYACVAIFKELKSINKMINMKAYIGRMDTSNDSIIIESELVQNADGEISNTKMGKTFSVEKYISNYTSVCVSCEDYPLYKLVKMNEFCHEKNIGFFAAMCNGKFAFLFSDFGNHVIEESYYKAKEGQRKGETGANKAGELQKEGETGANNGGIPIQYCTLSHFLKVPFENFDKKTNKIIFPMFALILFELNKQLNKSDKSIDEQEFSTFCDQFSLAKCKESLGEITKTYRVAFSPSCSIMGGVTSQEIRKFVSKQHESIPNFCVFDMNQSVVCTSMIS | not soluble
16 | MAHHHHHHMLYHYDILKYNSNHEYNNCSYFKNTFVHFFDYIYNIKMMKEYNDLKAKICINKEFNILFNILNKMNYSFAYRDKKLIKMNDCLYHTYHIIGIKKISSIGYIFNFKNELNDNFSKVLKTKISNILSIEDIYFLFNRFFYFLLMYIRKFCCFSNKKDTNIPQNEAETFVNSVCNCKQDNCCYKIKTIVLINNIQ | not soluble
17 | MGSDKIHHHHHHMPFITKISTQKKNTERFNIFLDDKYAFSVDADVLVKFELKKGKELDDLDIIEIQYGDEVKKGFNRALDFLSYRMRSTKEVEDHLKKKETSPPVIAEVIHRLNDYKYLNDQEFAAAYVSTHKKTNGKGPDVLFRELRAKGIDDDTIKEALSSFSFEDQTREAVKHVEKLLKKDKKLSTKELKQRAQLQLQRKGFSFDVISAAMDQIEYENDEDTEKEALRLHAEKAFRKYRYDGSYESAMKVKQFLFRKGFSLDLIEQLLQEEEY | not soluble
18 | MKTFKAVRFQIVNEHGRIIEYELEDGVIINKEESGTGWLLEIVISNEHYETFKEYQDNEQLLDIRVVITRPANDPALFESTVKSIKNFKTTMSIVFECHIYTLRQQYAESLLEQLIDDGLSGEELKKSFNRMMQSKPKLKDEKLEE | not soluble
19 | MYDKILKMLTDTIKQFSDAPIYLDNVMQSSEPFYFVLSVEESMTDNVGQNVQNKAYNVDIALVDSKKDKQLVKSLTESCGAFFNVLNLDGNELFPEDYQTFKTDGIQHINFNVAFPQLIEWSEK | not soluble
20 | MSLKPSTRSNVQPFRVMQMLDRVHRRRREGKDTLMFCAGQPSTGAPEAVIEEAEIALRSGPLGYTEVIGDREFRERIADWHSATYDVDTNPDNVIVTTGSSGGFVASFIATLDHGDYVAMPTPGYPAYRNILESLGAKVLNLRCTAETRFQPTAQMLEELPHKPKAVIVTSPGNPTGTIIDPEELERIAKWCDDNDAVLISDEDYHGMSFGRPLATAHQFSKNAIVVGTLSKYFSMTGWRVGWIIVPDELVTPIENLQASLSLCAPAIGQAAGRAAFTLEAGAELDAHVEAYREAREVFVDKLPEIGLGTFADPDGGLYLWVDVSAYTDDSEEWALRLLDEAGVAVAPGVDFDPEEGHKWIRLSLCASKEDTIEGVRKIGEFIKKEGHHHHHH | soluble
